According to patent US20140298544A1, “Engineered PEP carboxylase variants for improved plant productivity” (PIONEER HI BRED INTERNATIONAL INC, priority 2011, published 2014):
Read-outs that look alike come from different tables or passages of the source.

Assays:
maize C4 PEPC [1] = biological target: T1, maize C4 PEPC (Zea mays, UniProt P04711, A239D/A736P/F800W/F886Y/H119R/H347Q/P482S/R192G/R495K/R556K/R807K/S350A/V555I); assay: Kinetic and regulatory properties of PEPC variants (expressed in E. coli); format: biochemical; conditions: relative to wild type
T1 construct: thioredoxin; made in house; host or cells: E. coli Rosetta gami 2 BL21 DE3 pLYS S
Description: (§1) Libraries of modified PEPC polynucleotides were generated using recursive sequence recombination methods (Stemmer, Proc. Natl. Acad. Sci USA 91:10747-10751; Ness, et. al., Nature Biotechnology 20:1251-1255), also known as gene shuffling methods. These libraries incorporated diversity from related PEPC enzymes and also incorporated other designed and random changes. The starting polynucleotide sequence in which the diversity was incorporated was the maize C4 PEPC as shown in SEQ ID NO: 25. Each PEPC variant was expressed in E. coli as a thioredoxin fusion using the pET 32 expression vector (Novagen) with the E. coli expression strain Rosetta gami 2 BL21 DE3 pLYS S. Cultures expressing the variants were grown in 96-well culture blocks, lysed, and then PEPC activity and PEPC protein abundance were determined. The variants with high specific activity were subjected to further rounds of shuffling, for a total of 3 rounds. Examples of nucleotide and amino acid sequences of PEPC variants obtained with this method are SEQ ID NO: 4 to 24.
(§2) Detailed kinetic studies of PEPC variants were done in accordance with methods known in the art. See, for example, Tovar-Mendez et al. (2000) Plant Physiol. 123: 149-160; Tover-Mendez et al. (1998) Biochem. J. 332: 633-642.
(§3) PEPC variants had several improved properties in comparison with wild type PEPC, including greater affinity (lower S0.5 values) with respect to the bicarbonate substrate, greater Kcat/S0.5 values with the bicarbonate or PEP substrates, greater activation (lower A0.5 values) with […] or glycine as activators and greater Ki values with malate as inhibitor.

maize C4 PEPC [2] = assay: as above; format: biochemical
Description: as §1, §2, §3

B1: 3D37-F3: maize C4 PEPC variant, 10 amino acid substitutions, SEQ ID NO: 10 (protein)
chain: MASTKAPGPGEKHHSIDAQLRQLVPGKVSEDDKLIEYDALLVDRFLNILQDLHGPSLREFVQECYEVSADYEGKGDTTKLGELGAKLTGLAPADAILVASSILHMLNLANLAEEVQIARRRRNSKLKKGGFADEGSATTESDIEETLKRLVSEVGKSPEEVFEALKNQTVDLVFTAHPTQSARRSLLQKNAGIRNCLTQLNAKDITDDDKQELDEALQREIQAAFRTDEIRRAQPTPQDEMRYGMSYIHETVWKGVPKFLRRVDTALKNIGINERLPYNVSLIRFSSWMGGDRDGNPRVTPEVTRDVCLLARMMAANLYIDQIEELMFELSMWRCNDELRVRAEELQSSAGSKVTKYYIEFWKQIPPNEPYRVILGHVRDKLYNTRERARHLLASGVSEISAESSFTSIEEFLEPLELCYKSLCDCGDKAIADGSLLDLLRQVFTFGLSLVKLDIRQESERHTDVIDAITTHLGIGSYREWSEDKRQEWLLSELKGKRPLLPPDLPQTDEIADVIGAFHVLAELPPDSFGPYIISMATAPSDVLAVELLQRECGIKQPLPVVPLFERLADLQSAPASVERLFSVDWYMDRIKGKQQVMVGYSDSGKDAGRLSAAWQLYRAQEEMAQVAKRYGVKLTLFHGRGGTVGRGGGPTHLAILSQPPDTINGSIRVTVQGEVIEFCFGEEHLCFQTLQRFTAATLEHGMHPPVSPKPEWRKLMDEMAVVATEEYRSVVVKEPRFVEYFRSATPETEYGRMNIGSRPAKRRPGGGITTLRAIPWIFSWTQTRFHLPVWLGVGAAFKWAIDKDVKNFQVLKEMYNEWPFFRVTLDLLEMVFAKGDPGIAGLYDELLVAEELKPFGKQLRDKYVETQQLLLQIAGHKDILEGDPYLKQGLVLRNPYITTLNVFQAYTLKRIRDPNFKVTPQPPLSKEFADENKPAGLVKLNPASEYPPGLEDTLILTMKGIAAGMQNTG
modifications: shuffled variant
affinity (S0.5 value) for bicarbonate, in words (maize C4 PEPC [1]): higher affinity
kcat/S0.5 Fold incr. (maize C4 PEPC [2]): 70.1 Fold incr.
PEP, no activators kcat/S0.5 (maize C4 PEPC [2]; PEP substrate, no activators): 71.5 s⁻¹ mM⁻¹
PEP, no activators kcat/S0.5 % wt (maize C4 PEPC [2]; PEP substrate, no activators, relative to wild type): 210 % wt
PEP, with activators kcat/S0.5 (maize C4 PEPC [2]; PEP substrate, with activators): 5010 s⁻¹ mM⁻¹
PEP, with activators kcat/S0.5 % wt (maize C4 PEPC [2]; PEP substrate, with activators, relative to wild type): 205 % wt
Glc-6-P Vmax Fold incr (maize C4 PEPC [2]; activator Glc-6-P): 7.2 Fold incr
EC50 (maize C4 PEPC [2]; activator Glc-6-P, read-out: Glc-6-P A0.5): 4.46 mM
Glc-6-P A0.5 % wt (maize C4 PEPC [2]; activator Glc-6-P, relative to wild type): 66 % wt
Glycine Vmax Fold incr (maize C4 PEPC [2]; activator glycine): 5.8 Fold incr
EC50 (maize C4 PEPC [2]; activator glycine, read-out: Glycine A0.5): 0.93 mM
Glycine A0.5 % wt (maize C4 PEPC [2]; activator glycine, relative to wild type): 26 % wt
HCO3 S0.5 (maize C4 PEPC [2]; bicarbonate substrate): 0.0167 mM
HCO3 kcat/S0.5 (maize C4 PEPC [2]; bicarbonate substrate): 3512 s⁻¹ mM⁻¹
HCO3 kcat/S0.5 % wt (maize C4 PEPC [2]; bicarbonate substrate, relative to wild type): 166 % wt
Ki (maize C4 PEPC [2]; inhibitor malate): 2.4 mM
Malate Ki % wt (maize C4 PEPC [2]; inhibitor malate, relative to wild type): 600 % wt
Ki for malate, in words (maize C4 PEPC [2]; relative to wild type): increased Ki
activation by glucose-6-phosphate, in words (maize C4 PEPC [2]; relative to wild type): increased activation
activation by glycine, in words (maize C4 PEPC [2]; relative to wild type): increased activation
